For five molecules, EC50 results are on record in patent publication US20050152898A1 (BIOVATION, published 2005).

Residue numbers refer to the chain shown, from its start.

T1: CD52 human leukocyte antigen (human, UniProt P31358 25-36)
T1 construct: whole, on cells; also called CD52 antigen
T1 chain (looked up): GQNDTSQTSSPS

B1: DIVH5/DIVK4 (antibody, human IgG1, V domains shown)
VH: EVQLLESGGGLVQPGGSLRLSCAGSGFTFTDFYMNWIRQPPGKAPEWLGFIRDKAKGYTTEYNPSVKGRFTISRDNSKNTLYLQMNSLRAEDTAVYYCAREGHTAAPFDYWGQGTLVTVSS
VL: DIQMTQSPSSLSASVGDRVTITCKASQNIDKYLNWYQQKPGKAPKSLIYNTNNLQTGVPSRFSGSGSGTDFTLTISSLQPEDIATYYCLQHISRPRTFGTGTKLELK
notes: also called DIVHv5/DIVKv4
B2: DIVH3/DIVK4 (antibody, human IgG1, V domains shown)
VH: EVKLQESGGGLVQPGGSMRISCSGSGFTFTDFYMNWIRQPPGKGPEWIGFIRDKAKGYTTEYNPSVKGRFTISRDNTQNTLHLQANTLRAEDTAVYYCAREGHTAAPFDYWGQGTTVTVSS
VL: B1 VL
notes: also called DIVHv3/DIVKv4
B3: DIVH3/DIVK5 (antibody, human IgG1, V domains shown)
VH: B2 VH
VL: B1 VL with A43S, S46L
notes: also called DIVHv3/DIVKv5
B4: DIVH3/DIVK1 (antibody, human IgG1, V domains shown)
VH: B2 VH
VL: B1 VL with K24R, T56S
notes: also called DIVHv3/DIVKv1
B5: DIVH5/DIVK5 (antibody, human IgG1, V domains shown)
VH: B1 VH
VL: B1 VL with A43S, S46L
notes: also called DIVHv5/DIVKv5

This test concerns the target T1, CD52 human leukocyte antigen. The experiment in a line: FACS on HUT-78 cells (CD52+), FITC anti-human IgG Fc, median fluorescence, 4-parameter fit; titre = 50% of maximum binding. Here is the method:
Human T-cell lymphoma cell line HUT-78 is CD52 positive and was used to assess binding of the modified antibodies of the present invention. In the present example, different concentrations of test antibody were incubated with the cells and the amount of bound antibody was assessed following incubation with a fluorescent-labelled reporter reagent. The reporter is measured using a fluorescence activated cell sorter (FACS).
For detection, the cells were incubated for 1 hour on ice with a 1:1000 dilution of FITC-labelled anti-human IgG Fc domain. This reagent is a goat anti-human IgG (Fc specific) obtained from Sigma (Poole, UK). The cells were washed as previously and re-suspended in 100 μl of PBS/2% FBS and transferred to 4 ml FACS tubes (Becton Dickinson) containing 900 μl of PBS/2% FBS/Propidium Iodide (1:1000). The cells were analysed using a conventional Becton Dickenson FACS Calibur instrument.
The binding of the test and control antibodies was determined using the Median Fluorescence value. The saturating concentration of antibody was determined from plots of the Median Fluorescence—Zero Antibody Median Fluorescence versus Concentration of antibody. The binding curves were fitted to a logistic 4 parameter sigmoidal equation using SigmaPlot, giving an excellent fit with 95% confidence levels.
The EC50 is the concentration giving half of the maximal effect. Read a low EC50 as greater potency. For the molecule B1, it took 4.05 µg/mL to reach a half-maximal effect (EC50).

For B2, the EC50 was 8.63 µg/mL. The figure for B3 is 3.3 µg/mL; for B4 it is 9.6 µg/mL. For the molecule B5, it took 3 µg/mL to reach a half-maximal effect (EC50).
